# Measurements reported in US20240327815A1.
# Key:
# [1] = molecular target: Delta SARS-CoV-2 spike protein, plate-coated (MSD) (SARS-CoV-2) (UniProt P0DTC2); assay: MSD competition vs labelled ACE2
# [2] = molecular target: B.1.351 (Beta) SARS-CoV-2 spike protein, plate-coated (MSD) (SARS-CoV-2) (UniProt P0DTC2); assay: MSD competition vs labelled ACE2
# [3] = molecular target: Omicron SARS-CoV-2 spike protein, plate-coated (MSD) (SARS-CoV-2) (UniProt P0DTC2); assay: MSD competition vs labelled ACE2
# [4] = molecular target: B.1.1.7 (Alpha) SARS-CoV-2 spike protein, plate-coated (MSD) (SARS-CoV-2) (UniProt P0DTC2); assay: MSD competition vs labelled ACE2
# [5] = molecular target: Beta SARS-CoV-2 spike on pseudotyped lentivirus (SARS-CoV-2) (UniProt P0DTC2); assay: cell-based or functional assay
# [6] = molecular target: Alpha SARS-CoV-2 spike on pseudotyped lentivirus (SARS-CoV-2) (UniProt P0DTC2); assay: cell-based or functional assay
# [7] = molecular target: SARS-CoV-2 Delta (B.1.617.2) spike RBD (SPR) (SARS-CoV-2) (UniProt P0DTC2); assay: SPR
# [8] = molecular target: SARS-CoV-2 Delta (B.1.617.2) spike RBD (SPR) (SARS-CoV-2) (UniProt P0DTC2); assay: SPR, 1:1 model
substance,measurement,setting,value
Bamlanivimab + Etesevimab,IC50,[1],160 pM
same,IC50,[2],310 pM
same,IC50,[3],590 pM
same,IC50,[4],80 pM
Sotrovimab (antibody),"Pseudovirus Neutralization (IC50, nM)",[5],0.01 nM
same,"Pseudovirus Neutralization (IC50, nM)",[6],3.32 nM
REGN10933 (Casirivimab) (antibody),Kd,[7],69.6 pM
same,Kd,[8],69.6 pM
REGN10987 (Imdevimab) (antibody),Kd,[7],105 pM
same,Kd,[8],105 pM
